Assay results reported in patent US20080260858A1, “Universal Procoagulant” (The Board of Trustees of the University of Illnois, priority 2005, published 2008).

Columns and labels:
VII = molecular target: T1, VII (Homo sapiens, UniProt P08709); test: Factor VII autoactivation; type: biochemical; settings: 15 nM VII and TF; 37° C.; liposomes
T1 construct: Purified plasma-derived VII, X and factor Xa (Xa) were from Enzyme Research Laboratories; purchased Enzyme Research Laboratories; host or cells: plasma
Method: An additional function of TF is to promote the autoactivation of VII in a reaction that is dependent on TF surface density.
Factor VII autoactivation. Rates of VII autoactivation were measured essentially as described. Equimolar concentrations of VII and TF (15 nM each) were incubated in HBSAC at 37° C. […] A 20 μl aliquot of 5 mM Chromozym t-PA substrate was added and the change in A405 was monitored at ambient temperature. Two-dimensional second-order rate constants (k2D) were determined as described.

X activation by VIIa = molecular target: T2, X activation by VIIa (Homo sapiens, UniProt P08709); test: Factor X activation using liposomes; type: biochemical; settings: 500 pM VIIa, 4 pM TF, 50 μM total lipid; liposomes
T2 construct: VIIa or factor VIIa means coagulation factor VIIa (active enzyme); purchased American Diagnostica
Method: A stringent test of TF:VIIa function is its ability to support the activation of its natural protein substrate, X. This requires that TF be incorporated into a suitable phospholipid membrane (i.e., one containing negatively charged phospholipids). […] The ability of various forms of TF to support the activation of X was compared under equivalent concentrations of enzyme (500 pM VIIa), cofactor (4 pM TF) and liposomes (50 μM total lipid).
Factor X activation using liposomes. […] At varying times, 20 μl aliquots were removed into a 96-well plate containing 100 μl Stop Buffer 1 (40 mM Mes-NaOH pH 5.8, 12 mM EDTA, 50 mM NaCl, 0.25% Triton X-100, 0.1% NaN3, 0.012% Antifoam C) at 4° C. After warming the stopped reactions to room temperature, Xa was detected by adding 60 μl of 1.5 mM Spectrozyme Xa in HBSAC plus 0.6 M Tricine-NaOH, pH 8.4 and quantifying change in A405. Amounts of Xa generated were determined by comparison to a standard curve with purified Xa.

VIIa = molecular target: T3, VIIa (Homo sapiens, UniProt P08709); test: Kd for VIIa binding to TF (X activation rate as readout); settings: purified proteins; membTF in PCPS liposomes; sTF-5AA-(His)6 plus NiPCPS liposomes; read-out: VIIa binding Kd
T3 construct: VIIa or factor VIIa means coagulation factor VIIa (active enzyme); purchased American Diagnostica
T3 sequence (P08709 61-212): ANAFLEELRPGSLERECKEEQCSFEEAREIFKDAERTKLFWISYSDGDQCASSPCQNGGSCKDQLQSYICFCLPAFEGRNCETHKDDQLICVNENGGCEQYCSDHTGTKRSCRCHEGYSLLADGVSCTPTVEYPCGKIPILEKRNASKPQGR
T3 sequence (P08709 213-466): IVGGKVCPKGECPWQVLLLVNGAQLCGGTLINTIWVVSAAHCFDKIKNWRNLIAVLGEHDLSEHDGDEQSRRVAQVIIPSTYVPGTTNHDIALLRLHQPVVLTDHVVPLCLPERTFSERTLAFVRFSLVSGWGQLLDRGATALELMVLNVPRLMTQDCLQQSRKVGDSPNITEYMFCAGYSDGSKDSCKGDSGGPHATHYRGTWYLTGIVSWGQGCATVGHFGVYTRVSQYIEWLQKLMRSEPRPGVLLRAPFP
Method: When VIIa binds to TF, its rate of X activation increases dramatically, so this can be used as a convenient readout for TF:VIIa complex formation. […] Therefore, when the isolated TF ectodomain was attached to the membrane surface via interaction with metal-chelating lipids, its VIIa binding ability was indistinguishable from membTF that spanned the lipid bilayer.
Measurement of the Kd for VIIa binding to TF—The binding affinity of VIIa for various forms of TF was measured using the TF-dependent increase in the rate of X activation as the readout for TF:VIIa complex formation. Activation of X by the TF:VIIa complex was measured by adapting the continuous chromogenic assay of Fiore et al.. Reaction mixtures containing Vila and either rTF/PCPS or sTF+SUVs were prepared in HBSAC. Reactions were initiated by adding a mixture of X and the chromogenic substrate, S-2222, in a flat bottom, 96-well plate. Change in A405 was monitored at ambient temperature in a VERSAmax microplate reader (Molecular Devices), sampling every 15 sec for 20 min. Initial rates of X activation were determined by fitting a second-order polynomial to the A405 data as described. The quadratic ligand binding equation was fit to the rate data as described to derive apparent Kd values for the binding of VIIa to TF. For experiments using relipidated rTF, typical reaction mixtures containing 0.25 μM VIIa and 20 nM X in HBSAC were incubated with increasing concentrations of rTF/PCPS.

T1 sequence (P08709 61-466, one chain of several): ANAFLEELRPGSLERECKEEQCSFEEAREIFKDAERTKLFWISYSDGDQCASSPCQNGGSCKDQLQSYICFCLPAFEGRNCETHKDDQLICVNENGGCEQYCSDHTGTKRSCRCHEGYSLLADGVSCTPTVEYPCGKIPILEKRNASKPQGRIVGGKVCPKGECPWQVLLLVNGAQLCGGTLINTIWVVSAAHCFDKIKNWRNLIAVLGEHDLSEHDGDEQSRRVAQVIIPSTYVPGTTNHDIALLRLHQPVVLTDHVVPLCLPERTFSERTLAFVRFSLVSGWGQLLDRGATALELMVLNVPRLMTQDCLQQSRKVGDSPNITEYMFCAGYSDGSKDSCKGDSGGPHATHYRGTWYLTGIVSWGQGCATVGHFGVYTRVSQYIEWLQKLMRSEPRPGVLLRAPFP

B1: membTF: recombinant membrane-bound tissue factor (protein, UniProt P13726 1-295, looked up)
chain: METPAWPRVPRPETAVARTLLLGWVFAQVAGASGTTNTVAAYNLTWKSTNFKTILEWEPKPVNQVYTVQISTKSGDWKSKCFYTTDTECDLTDEIVKDVKQTYLARVFSYPAGNVESTGSAGEPLYENSPEFTPYLETNLGQPTIQSFEQVGTKVNVTVEDERTLVRRNNTFLSLRDVFGKDLIYTLYYWKSSSSGKKTAKTNTNEFLIDVDKGENYCFSVQAVIPSRTVNRKSTDSPVECMGQEKGEFREIFYIIGAVVFVVIILVIILAISLHKCRKAGVGQSWKENSPLNVS
modifications: full-length
Question: Which “VII autoactivation k2D” value (VII) does the source give for B1 here?
Answer: 3.4 (±0.15) × 10^7 m^2 mol^−1 s^−1

Question: What about the Km (X activation by VIIa) of the same molecule?
Answer: 0.059 ± 0.00088 µM

Question: And the X activation kcat (X activation by VIIa)?
Answer: 3.5 ± 0.38 s⁻¹

Question: What about the Kd (VIIa) of the same molecule?
Answer: 0.01 nM
